{
  "source": "paper PMC8188212",
  "about": "“Multi‐Arm PEG/Peptidomimetic Conjugate Inhibitors of DR6/APP Interaction Block Hematogenous Tumor Cell Extravasation” (Advanced Science, 2021)",
  "key": {"[1]": {"assay": "DAPI staining of lung sections after injection of FITC-labeled ligand", "format": "in vivo", "conditions": "FITC-labeled ligand intravenously, lungs isolated 30 min later, confocal", "protocol": "FITC‐labeled AHP‐DRI‐12 and PEG‐tAHP‐DRI were injected intravenously and 30 min later, lungs were isolated to prepare frozen sections. The frozen sections were stained with DAPI. The representative images were taken on a confocal microscope."}, "[2]": {"assay": "Biodistribution, ex vivo fluorescence imaging of organs", "format": "in vivo", "conditions": "Cy7-labeled peptides, intravenous, mice", "protocol": "To quantify the biodistribution, mice were intravenously injected with Cy7‐labeled peptides. Mice were sacrificed at 6, 12, and 24 h after injection. All organs were harvested and subjected to ex vivo fluorescence imaging."}, "[3]": {"assay": "Pharmacokinetic study after intravenous injection", "format": "in vivo", "conditions": "SD rats, FITC-labeled", "protocol": "To investigate the pharmacokinetic profile of AHP‐DRI‐12 and PEG‐tAHP‐DRI, SD rats were intravenously injected with FITC‐labeled AHP‐DRI‐12 and PEG‐tAHP‐DRI and blood samples were collected at 0.5, 1, 2, 4, 6, 24, 30, 48, 54, and 72 h. The DR6‐targeting peptide level of blood samples was measured by a microplate reader."}, "[4]": {"system": "B16F10, 4T1, and CT26 lung metastasis models", "assay": "In vivo anti-metastasis assay, lung metastasis models", "parameters": "species or system mice", "protocol": "2 × 10^5 GFP‐B16F10 cells, 2 × 10^5 4T1, or 2 × 10^5 CT26 in 100 µL PBS were injected to the lateral tail vein of mice, respectively. The mice were intravenously injected with saline, AHP‐DRI‐12, and PEG‐tAHP‐DRI (0.2 µg g^–1 AHP‐DRI‐12) shortly before and 24 h after injection of B16F10. Each formulation was administered every 2 days for a total of seven times. After 15 days, mice were sacrificed and perfused with PBS and 4% paraformaldehyde. The hearts, livers, spleens, lungs, and kidneys were collected for H&E staining and immunohistochemistry analysis. Lung metastases were analyzed by quantitation of GFP and metastases nodes."}, "[5]": {"system": "4T1 orthotopic tumor model", "assay": "Spontaneous lung metastasis of 4T1 orthotopic breast tumor model", "format": "in vivo, Balb/c female mice", "conditions": "intravenous, 0.2 µg g^–1 AHP-DRI-12, every 2 days, 14 times; sacrificed day 30", "protocol": "The spontaneous lung metastasis of orthotopic breast tumor model was established via injection of 4T1 cells into the fourth inguinal mammary gland of Balb/c female mice. The mice were intravenously injected with saline, AHP‐DRI‐12, and PEG‐tAHP‐DRI (0.2 µg g^–1 AHP‐DRI‐12), respectively, every 2 days for total of 14 times. Mice were sacrificed on day 30 and their lungs were collected for observation and histological analysis."}, "HUVECs": {"system": "HUVECs", "assay": "MTT cytotoxicity assay", "format": "cell-based, human", "conditions": "up to 10 × 10^−6 M, 24, 48, 72 h, n = 3", "protocol": "To evaluate the cytotoxicity of DR6‐targeting peptides, MTT assay was conducted. Briefly, 4 × 10^3 HUVECs were added in 96‐well plates and grown overnight before incubating with AHP‐DRI‐12 and PEG‐tAHP‐DRI (0.1 × 10^–6, 1.0 × 10^–6, 10 ×10^–6 M AHP‐DRI‐12). After incubating for 24, 48, and 72 h, 100 µL of 0.5 mg mL^–1 MTT was added to each well, and the plates were incubated at 37 °C for 4 h. After the removal of the supernatant, the precipitate was dissolved in 150 µL dimethyl sulfoxide, and the absorbance was measured at 490 nm using a microplate reader."}, "hERG potassium channel": {"target": "hERG potassium channel (Homo sapiens, UniProt Q12809)", "sequence (Q12809 whole entry)": "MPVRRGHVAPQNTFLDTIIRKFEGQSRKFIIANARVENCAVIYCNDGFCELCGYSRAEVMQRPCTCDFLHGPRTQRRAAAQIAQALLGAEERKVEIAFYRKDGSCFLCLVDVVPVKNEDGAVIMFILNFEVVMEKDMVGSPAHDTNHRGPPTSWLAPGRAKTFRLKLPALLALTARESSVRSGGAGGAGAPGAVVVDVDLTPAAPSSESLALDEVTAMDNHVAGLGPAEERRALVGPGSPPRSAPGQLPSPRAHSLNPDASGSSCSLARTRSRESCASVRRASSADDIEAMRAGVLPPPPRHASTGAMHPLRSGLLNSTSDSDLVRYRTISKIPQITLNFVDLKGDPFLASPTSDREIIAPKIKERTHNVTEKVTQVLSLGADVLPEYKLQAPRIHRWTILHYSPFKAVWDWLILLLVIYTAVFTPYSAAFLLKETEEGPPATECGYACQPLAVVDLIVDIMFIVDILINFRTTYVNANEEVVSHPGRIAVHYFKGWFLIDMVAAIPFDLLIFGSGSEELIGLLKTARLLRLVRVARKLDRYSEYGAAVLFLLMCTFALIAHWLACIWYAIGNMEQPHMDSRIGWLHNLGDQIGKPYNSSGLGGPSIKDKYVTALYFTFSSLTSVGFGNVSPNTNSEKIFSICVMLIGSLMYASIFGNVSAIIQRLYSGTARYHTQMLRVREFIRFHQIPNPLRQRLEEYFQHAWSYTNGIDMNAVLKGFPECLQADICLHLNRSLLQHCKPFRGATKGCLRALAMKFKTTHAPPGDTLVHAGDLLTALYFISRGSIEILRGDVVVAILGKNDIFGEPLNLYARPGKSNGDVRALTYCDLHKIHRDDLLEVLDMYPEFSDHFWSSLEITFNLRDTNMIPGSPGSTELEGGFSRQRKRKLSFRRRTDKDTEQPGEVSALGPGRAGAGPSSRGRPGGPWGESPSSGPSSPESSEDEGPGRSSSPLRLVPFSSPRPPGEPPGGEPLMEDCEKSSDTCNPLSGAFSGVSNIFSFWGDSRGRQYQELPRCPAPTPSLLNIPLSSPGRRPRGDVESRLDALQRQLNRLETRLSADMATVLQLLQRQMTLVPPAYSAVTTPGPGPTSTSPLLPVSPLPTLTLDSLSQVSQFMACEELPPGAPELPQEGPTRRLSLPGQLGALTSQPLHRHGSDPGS", "assay": "Whole-cell patch clamp recording of hERG current", "format": "cell-based", "conditions": "cisapride as positive control", "protocol": "In addition, some common adverse effects suffered by frequently used medications were also evaluated. The whole‐cell patch clamp recording technique was used to record the whole‐cell hERG‐potassium to measure the cardiac toxicity of peptidomimetic agents on hERG potassium channel by utilizing cisapride as positive control (Figure 6E; Figure S10, Supporting Information). […] Meanwhile, the blood biochemical indexes of ligand‐treated mice sacrificed on day 2 or day 15 were tested to examine the influences of peptidomimetic agents to liver and kidney (Figure S11, Supporting Information)."}, "[6]": {"assay": "In vivo safety analysis in healthy mice", "parameters": "species or system C57BL/6 mice", "conditions": "intravenous", "protocol": "For evaluating the toxicity of peptides in vivo, 6 week old healthy mice were intravenously injected with AHP‐DRI‐12 and PEG‐tAHP‐DRI (0.2 µg g^–1 AHP‐DRI‐12). After 2 and 15 days, mice were sacrificed and serum samples were collected for the biochemical analysis (ALT, AST, BRU, and URE). Tissue samples from various organs were collected for tissue sections. The tissue sections were analyzed by H&E staining and immunohistochemistry analysis."}, "[7]": {"assay": "DLS analysis of size in solution", "format": "physicochemical", "protocol": "AHP‐DRI‐12 with additional Cys residue at the C‐terminal and 4‐arm PEG5k maleimide was dissolved in PBS (0.1 M, pH = 8) at a molar ratio of 8:1. The reaction mixture was stirred for 4 h at room temperature and then dialyzed in a Slide‐A‐Lyzer dialysis cassette (Thermo Fisher Scientific, Shanghai, China) (MWCO: 3500 Da) against water. The dialysate containing the pure product was lyophilized. The products were confirmed by nuclear magnetic resonance (^1H NMR) spectra using a Bruker Avance 500 (500 MHz) spectrometer (Beijing, China)."}, "[8]": {"conditions": "B16F10 tumor-bearing mice, 15 days"}, "[9]": {"conditions": "healthy C57BL/6 mice, day 2 or 15"}},
  "note": "Square brackets hold non-standard residues; d marks the D form. Side chains are listed from the residue outwards. Ends that are not written are not given here. maleimide = maleimide: 4-arm PEG5k maleimide reacting with the C-terminal Cys thiol",
  "data": [
    {"substance": "PEG-tAHP-DRI: tetra-(D-retro-inverso isomer of AHP-12) substitued 4-arm PEG5k ([dP][dT][dT][dA][dD][dI][dT]C([maleimide-4‑arm PEG5k]); also: four peptides on one 4-arm PEG5k)", "values": [
      {"measurement": "binding potency and proteolytic stability in vivo by FITC fluorescence on lung frozen sections", "setting": "[1]", "value": "best proteolytic stability"},
      {"measurement": "distribution in kidney and liver after 12 h", "setting": "[2]", "value": "much higher distribution in kidney and liver"},
      {"measurement": "distribution intensity within 6 h, compared with AHP-DRI-12", "setting": "[2]", "value": "much lower distribution intensity"},
      {"measurement": "organ accumulation within 6 h after injection", "setting": "[2]", "value": "accumulate mostly in kidney and slightly in liver"},
      {"measurement": "half-life (T1/2)", "setting": "[3]; blood samples 0.5-72 h, microplate reader, n = 3", "value": 11.1, "unit": "h"},
      {"measurement": "area under the curve (AUC0-72)", "setting": "[3]; compared with AHP-DRI-12", "value": "significantly larger"},
      {"measurement": "necroptosis in lungs, p-RIPK1 immunohistochemical analysis", "setting": "[4]; [8]", "value": "dramatic decrease of necroptosis in lungs"},
      {"measurement": "pulmonary vessel integrity, CD31 staining", "setting": "[4]; [8]", "value": "remained relatively intact and orderly"},
      {"measurement": "expression level of GFP mRNA in lungs", "setting": "[4]; GFP-B16F10 model, compared with vehicle-treated and AHP-DRI-12-treated mice, n = 6", "value": "less expression level of GFP mRNA in lungs"},
      {"measurement": "pulmonary metastasis nodules", "setting": "[4]; intravenous, 0.2 µg g^–1 AHP-DRI-12, every 2 days, seven times, lungs after 15 days", "value": "least amount of pulmonary metastasis nodules"},
      {"measurement": "metastatic loci in lungs, H&E staining", "setting": "[4]; intravenous, 0.2 µg g^–1 AHP-DRI-12, 15 days, n = 6", "value": "less and smaller metastatic loci"},
      {"measurement": "spontaneous metastasis to lungs", "setting": "[5]", "value": "efficiently restrain spontaneous metastasis to lungs"},
      {"measurement": "HUVECs cell viability", "setting": "HUVECs", "value": "remained essentially unchanged"},
      {"measurement": "inhibitory effect on hERG channels", "setting": "hERG potassium channel", "value": "no significant inhibitory effect"},
      {"measurement": "apoptotic cells in tissues, TUNEL staining", "setting": "[6]; [9]", "value": "no obvious increase in apoptotic cells"},
      {"measurement": "damage to vessels, CD31 staining", "setting": "[6]; [9]", "value": "could not cause damage to the vessels"},
      {"measurement": "downstream signaling pathway of DR6 (p-RIPK1, p-IκB-α, caspase 8 staining)", "setting": "[6]; [9]", "value": "could not be impacted"},
      {"measurement": "damage to liver or kidney, blood biochemical indexes (ALT, AST, BRU, URE)", "setting": "[6]; healthy mice, 0.2 µg g^–1 AHP-DRI-12, sacrificed day 2 or day 15", "value": "could not cause any damage to liver or kidney"},
      {"measurement": "size distribution in solution (hydration dynamic radius, DLS)", "setting": "[7]", "value": "≈ 10 nm"}
    ]}
  ]
}
